The values below come from patent US20240010722A1 (published 2024).

Changes are numbered by the printed parent chain.

B1: PMAB2 (bispecific antibody, human IgG1, kappa)
heavy: EVQLLESGGGLVQPGGSLRLSCAASGFTFSNSDMSWVRQAPGKGLEWVSGITISGGSTYYADSVKGRFTISRDNSKNTLYLQMNSLRAEDTAVYYCARGRGGSGWLDYWGQGTLVTVSSASTKGPSVFPLAPSSKSTSGGTAALGCLVKDYFPEPVTVSWNSGALTSGVHTFPAVLQSSGLYSLSSVVTVPSSSLGTQTYICNVNHKPSNTKVDKKVEPKSCDKTHTCPPCPAPEAAGAPSVFLFPPKPKDTLMISRTPEVTCVVVDVSHEDPEVKFNWYVDGVEVHNAKTKPREEQYNSTYRVVSVLTVLHQDWLNGKEYKCKVSNKALPAPIEKTISKAKGQPREPQVYTLPPSREEMTKNQVSLTCLVKGFYPSDIAVEWESNGQPENNYKTTPPVLDSDGSFFLYSKLTVDKSRWQQGNVFSCSVMHEALHNHYTQKSLSLSPGGGGGSGGGGSGGGGSEVQLLESGGGLVQPGGSLRLSCAASGFTFSSYWMHWVRQAPGKGLEWVSAISGSSGSTYYADSVKGRFTISRDNSKNTLYLQMNSLRAEDTAVYYCARDRPYGYYMDVWGKGTTVTVSSGGGGSGGGGSGGGGSGGGGSDIQMTQSPSSLSASVGDRVTITCRASQSISSSLAWYQQKPGKAPKLLIYAASSLQSGVPSRFSGSGSGTDFTLTISSLQPEDFATYYCQQYKSYPVTFGQGTKVEIK
light: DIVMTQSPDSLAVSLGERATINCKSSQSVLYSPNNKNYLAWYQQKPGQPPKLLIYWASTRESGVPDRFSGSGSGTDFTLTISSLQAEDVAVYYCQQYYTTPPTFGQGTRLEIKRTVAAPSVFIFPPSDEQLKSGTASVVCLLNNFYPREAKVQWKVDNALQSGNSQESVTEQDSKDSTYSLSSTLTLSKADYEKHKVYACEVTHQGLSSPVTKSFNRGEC
B2: PMAB6 (bispecific antibody, human IgG1, kappa)
heavy: B1 heavy with V511I, S518G
light: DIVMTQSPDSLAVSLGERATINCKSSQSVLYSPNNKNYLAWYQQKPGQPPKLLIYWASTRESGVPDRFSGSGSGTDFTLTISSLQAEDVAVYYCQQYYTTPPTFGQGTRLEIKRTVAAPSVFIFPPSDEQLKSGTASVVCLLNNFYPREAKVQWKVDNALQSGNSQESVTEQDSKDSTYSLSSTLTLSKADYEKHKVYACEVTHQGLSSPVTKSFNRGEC
B3: PMAB51 (bispecific antibody, human IgG1, kappa)
heavy: EVQLLESGGGLVQPGGSLRLSCAASGFTFSNSDMSWVRQAPGKGLEWVSGITISGGSTYYADSVKGRFTISRDNSKNTLYLQMNSLRAEDTAVYYCARGRGGSGWLDYWGQGTLVTVSSASTKGPSVFPLAPSSKSTSGGTAALGCLVKDYFPEPVTVSWNSGALTSGVHTFPAVLQSSGLYSLSSVVTVPSSSLGTQTYICNVNHKPSNTKVDKKVEPKSCDKTHTCPPCPAPEAAGAPSVFLFPPKPKDTLMISRTPEVTCVVVDVSHEDPEVKFNWYVDGVEVHNAKTKPREEQYNSTYRVVSVLTVLHQDWLNGKEYKCKVSNKALPAPIEKTISKAKGQPREPQVYTLPPSREEMTKNQVSLTCLVKGFYPSDIAVEWESNGQPENNYKTTPPVLDSDGSFFLYSKLTVDKSRWQQGNVFSCSVMHEALHNHYTQKSLSLSPGGGGGSGGGGSGGGGSEVQLLESGGGLVQPGGSLRLSCAASGFTFSDFWMHWVRQAPGKGLEWISYISGDSGYTNYADSVKGRFTISRDNSKNTLYLQMNSLRAEDTAVYYCARDRPYYYKMDVWGKGTTVTVSSGGGGSGGGGSGGGGSGGGGSDIQMTQSPSSLSASVGDRVTITCRASQSVSRSLAWYQQKPGKAPKLLIYAASSLQSGVPSRFSGSGSGTDFTLTISSLQPEDFATYYCQQYKSYPVTFGQGTKVEIK
light: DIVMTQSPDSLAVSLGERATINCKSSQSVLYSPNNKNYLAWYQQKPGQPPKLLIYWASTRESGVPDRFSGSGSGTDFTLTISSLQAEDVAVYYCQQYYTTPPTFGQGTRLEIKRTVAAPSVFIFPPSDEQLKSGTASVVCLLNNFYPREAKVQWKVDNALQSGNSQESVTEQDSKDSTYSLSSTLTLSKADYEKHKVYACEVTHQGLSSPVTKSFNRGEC
B4: PMAB43 (bispecific antibody, human IgG1, kappa)
heavy: B3 heavy with K568Y, V698R
light: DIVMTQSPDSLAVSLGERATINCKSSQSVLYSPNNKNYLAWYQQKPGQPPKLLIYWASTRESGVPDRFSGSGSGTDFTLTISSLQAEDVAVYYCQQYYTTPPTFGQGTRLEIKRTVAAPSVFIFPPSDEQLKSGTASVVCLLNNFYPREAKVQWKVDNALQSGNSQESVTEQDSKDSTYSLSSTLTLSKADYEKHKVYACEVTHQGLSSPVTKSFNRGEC
B5: PMAB5 (bispecific antibody, human IgG1, kappa)
heavy: B1 heavy with G566Y, S633R
light: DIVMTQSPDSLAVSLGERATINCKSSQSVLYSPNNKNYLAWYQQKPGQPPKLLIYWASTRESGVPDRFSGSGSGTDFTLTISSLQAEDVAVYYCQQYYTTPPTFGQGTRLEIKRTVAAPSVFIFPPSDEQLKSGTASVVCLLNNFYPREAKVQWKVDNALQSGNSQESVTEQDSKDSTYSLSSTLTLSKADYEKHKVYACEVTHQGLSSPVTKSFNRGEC
B6: PMAB7 (bispecific antibody, human IgG1, kappa)
heavy: B1 heavy with V511I, S518G, G566Y
light: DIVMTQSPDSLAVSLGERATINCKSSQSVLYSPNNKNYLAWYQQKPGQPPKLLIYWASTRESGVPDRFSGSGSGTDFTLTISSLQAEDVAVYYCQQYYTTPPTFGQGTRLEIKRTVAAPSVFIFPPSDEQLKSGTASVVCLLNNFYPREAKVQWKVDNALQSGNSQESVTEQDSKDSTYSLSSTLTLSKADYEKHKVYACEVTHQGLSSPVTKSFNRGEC
B7: PMAB39 (bispecific antibody, human IgG1, kappa)
heavy: B3 heavy with K568Y, A636N
light: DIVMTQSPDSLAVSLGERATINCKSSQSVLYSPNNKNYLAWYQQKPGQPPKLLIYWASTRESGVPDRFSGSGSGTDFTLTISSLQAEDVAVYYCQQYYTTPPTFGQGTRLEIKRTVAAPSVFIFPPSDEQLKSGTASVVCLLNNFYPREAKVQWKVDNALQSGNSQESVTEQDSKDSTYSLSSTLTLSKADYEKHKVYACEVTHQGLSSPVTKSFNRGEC
B8: PMAB47 (bispecific antibody, human IgG1, kappa)
heavy: B3 heavy with Y566N, K568Y
light: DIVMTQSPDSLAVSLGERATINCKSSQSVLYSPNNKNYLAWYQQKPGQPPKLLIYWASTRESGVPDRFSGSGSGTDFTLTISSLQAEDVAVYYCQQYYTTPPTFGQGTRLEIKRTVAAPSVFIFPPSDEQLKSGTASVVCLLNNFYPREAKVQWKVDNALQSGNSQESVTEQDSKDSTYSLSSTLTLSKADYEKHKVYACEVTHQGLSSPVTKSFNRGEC
B9: PMAB10 (bispecific antibody, human IgG1, kappa)
heavy: B1 heavy with S518G
light: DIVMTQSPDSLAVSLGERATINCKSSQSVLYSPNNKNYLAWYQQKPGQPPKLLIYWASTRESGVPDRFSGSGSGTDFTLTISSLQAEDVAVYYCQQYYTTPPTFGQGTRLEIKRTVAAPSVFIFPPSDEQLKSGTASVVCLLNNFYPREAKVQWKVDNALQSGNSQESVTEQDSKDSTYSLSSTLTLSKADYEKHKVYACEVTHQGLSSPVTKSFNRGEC
B10: PMAB21 (bispecific antibody, human IgG1, kappa)
heavy: B3 heavy with W496A, K568Y
light: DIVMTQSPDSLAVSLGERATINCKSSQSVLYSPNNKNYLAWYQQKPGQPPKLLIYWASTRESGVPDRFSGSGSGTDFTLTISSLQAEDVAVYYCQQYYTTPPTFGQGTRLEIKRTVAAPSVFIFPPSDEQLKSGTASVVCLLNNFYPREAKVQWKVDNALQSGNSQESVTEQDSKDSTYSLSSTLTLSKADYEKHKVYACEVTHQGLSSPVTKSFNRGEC
B11: PMAB12 (bispecific antibody, human IgG1, kappa)
heavy: B1 heavy with S518G, S633R
light: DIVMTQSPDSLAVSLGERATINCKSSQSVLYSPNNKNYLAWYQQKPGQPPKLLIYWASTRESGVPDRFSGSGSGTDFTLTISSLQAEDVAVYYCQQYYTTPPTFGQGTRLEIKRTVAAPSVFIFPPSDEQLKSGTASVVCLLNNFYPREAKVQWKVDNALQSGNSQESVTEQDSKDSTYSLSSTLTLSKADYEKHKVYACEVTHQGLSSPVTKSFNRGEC
B12: PMAB9 (bispecific antibody, human IgG1, kappa)
heavy: B1 heavy with V511I, S518G, G566Y, S633R
light: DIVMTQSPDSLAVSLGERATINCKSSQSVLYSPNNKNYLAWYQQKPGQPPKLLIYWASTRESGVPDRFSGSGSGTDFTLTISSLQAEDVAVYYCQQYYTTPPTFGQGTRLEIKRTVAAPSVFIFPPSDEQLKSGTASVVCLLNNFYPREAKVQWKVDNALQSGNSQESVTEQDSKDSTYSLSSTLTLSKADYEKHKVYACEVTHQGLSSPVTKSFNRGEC
B13: PMAB3 (bispecific antibody, human IgG1, kappa)
heavy: B1 heavy with G566Y
light: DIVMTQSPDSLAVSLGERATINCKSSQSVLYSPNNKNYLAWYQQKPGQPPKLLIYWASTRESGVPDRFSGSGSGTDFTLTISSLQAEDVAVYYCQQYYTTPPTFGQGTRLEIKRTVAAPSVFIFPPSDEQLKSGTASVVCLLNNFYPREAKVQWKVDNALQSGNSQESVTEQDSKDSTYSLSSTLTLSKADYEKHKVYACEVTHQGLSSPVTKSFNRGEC
B14: PMAB38 (bispecific antibody, human IgG1, kappa)
heavy: B3 heavy with K568Y, S634Y
light: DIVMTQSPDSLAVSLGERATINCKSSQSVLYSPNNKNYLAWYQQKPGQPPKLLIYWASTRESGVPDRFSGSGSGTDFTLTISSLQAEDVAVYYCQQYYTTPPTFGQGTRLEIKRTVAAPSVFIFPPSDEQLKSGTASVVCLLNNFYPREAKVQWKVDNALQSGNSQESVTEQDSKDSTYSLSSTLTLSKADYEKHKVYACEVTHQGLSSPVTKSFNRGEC
B15: PMAB13 (bispecific antibody, human IgG1, kappa)
heavy: B1 heavy with S518G, G566Y, S633R
light: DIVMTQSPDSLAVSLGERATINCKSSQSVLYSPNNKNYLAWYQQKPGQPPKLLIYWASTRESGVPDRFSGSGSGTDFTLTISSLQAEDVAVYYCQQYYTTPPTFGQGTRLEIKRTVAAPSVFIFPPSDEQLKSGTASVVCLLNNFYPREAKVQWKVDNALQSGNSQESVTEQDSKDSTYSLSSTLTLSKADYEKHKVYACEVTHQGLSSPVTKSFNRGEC
B16: PMAB46 (bispecific antibody, human IgG1, kappa)
heavy: B3 heavy with Y566G, K568Y
light: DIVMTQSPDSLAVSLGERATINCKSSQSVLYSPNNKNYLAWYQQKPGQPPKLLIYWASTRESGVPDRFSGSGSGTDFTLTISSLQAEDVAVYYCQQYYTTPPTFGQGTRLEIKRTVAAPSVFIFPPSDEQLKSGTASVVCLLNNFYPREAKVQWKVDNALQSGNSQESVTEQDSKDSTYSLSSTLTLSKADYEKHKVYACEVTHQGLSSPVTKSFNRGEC
B17: PMAB8 (bispecific antibody, human IgG1, kappa)
heavy: B1 heavy with V511I, S518G, S633R
light: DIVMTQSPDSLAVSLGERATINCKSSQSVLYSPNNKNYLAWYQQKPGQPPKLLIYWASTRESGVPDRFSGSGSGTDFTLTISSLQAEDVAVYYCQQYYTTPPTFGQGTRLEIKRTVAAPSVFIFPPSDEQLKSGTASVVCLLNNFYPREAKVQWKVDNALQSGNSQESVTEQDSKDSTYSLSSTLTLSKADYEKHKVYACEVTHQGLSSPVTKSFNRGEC
B18: PMAB4 (bispecific antibody, human IgG1, kappa)
heavy: B1 heavy with S633R
light: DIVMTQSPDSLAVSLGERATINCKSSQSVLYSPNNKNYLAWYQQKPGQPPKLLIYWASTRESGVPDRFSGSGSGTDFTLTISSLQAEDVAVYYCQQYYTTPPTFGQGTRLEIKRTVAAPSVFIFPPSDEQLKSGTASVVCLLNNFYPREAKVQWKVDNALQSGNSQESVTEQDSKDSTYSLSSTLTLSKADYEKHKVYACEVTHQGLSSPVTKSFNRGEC
B19: PMAB49 (bispecific antibody, human IgG1, kappa)
heavy: B3 heavy with K568D
light: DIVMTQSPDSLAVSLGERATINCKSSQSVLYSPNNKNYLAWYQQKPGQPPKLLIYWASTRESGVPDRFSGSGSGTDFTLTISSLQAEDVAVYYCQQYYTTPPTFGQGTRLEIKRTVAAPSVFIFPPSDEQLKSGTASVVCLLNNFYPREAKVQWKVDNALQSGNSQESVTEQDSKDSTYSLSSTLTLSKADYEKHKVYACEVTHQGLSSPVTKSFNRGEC
B20: PMAB11 (bispecific antibody, human IgG1, kappa)
heavy: B1 heavy with S518G, G566Y
light: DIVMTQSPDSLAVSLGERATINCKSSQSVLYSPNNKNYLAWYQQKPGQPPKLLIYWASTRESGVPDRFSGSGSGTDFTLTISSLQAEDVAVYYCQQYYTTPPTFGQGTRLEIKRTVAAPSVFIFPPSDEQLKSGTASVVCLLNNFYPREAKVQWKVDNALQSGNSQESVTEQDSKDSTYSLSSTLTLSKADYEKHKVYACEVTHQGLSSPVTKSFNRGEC
B21: MIAB141 (antibody, V domains shown)
VH: EVQLLESGGGLVQPGGSLRLSCAASGFTFSDFWMHWVRQAPGKGLEWISYISGDSGYTNYADSVKGRFTISRDNSKNTLYLQMNSLRAEDTAVYYCARDRPYYYYMDVWGKGTTVTVSS
VL: DIQMTQSPSSLSASVGDRVTITCRASQSISSYLNWYQQKPGKAPKLLIYAASSLQSGVPSRFSGSGSGTDFTLTISSLQPEDFATYYCQQYKSYPVTFGQGTKVEIK
notes: tested with human Fc
B22: MIAB174 (antibody, V domains shown)
VH: B21 VH with F32Y
VL: B21 VL with I29V, S31R, Y32S, N34A
notes: tested with human Fc; also called MIAB174-001
B23: MIAB184 (antibody, V domains shown)
VH: B21 VH with D31S, F32Y, I48V, Y50A, D54S, S55G, Y57S, N59Y
VL: B21 VL with Y32S, N34A
notes: tested with human Fc; also called MIAB184-001
B24: MIAB177 (antibody, V domains shown)
VH: B21 VH with I48V, Y50A, D54S, S55G, Y57S, N59Y
VL: B21 VL with I29V, S31R, Y32S, N34A
notes: tested with human Fc; also called MIAB177-001
B25: MIAB178 (antibody, V domains shown)
VH: B21 VH with D31S, F32Y, Y50A, D54S, Y57S, N59Y
VL: B21 VL with I29V, S31R, Y32S, N34A
notes: tested with human Fc; also called MIAB178-001
B26: MIAB183 (antibody, V domains shown)
VH: B21 VH with D31S, F32Y, I48V, Y50A, D54S, S55G, Y57S, N59Y
VL: B21 VL with I29V, Y32S, N34A
notes: tested with human Fc; also called MIAB183-001
B27: MIAB182 (antibody, V domains shown)
VH: B21 VH with D31S, F32Y, I48V, Y50A, D54S, S55G, Y57S, N59Y
VL: B21 VL with S31R, Y32S, N34A
notes: tested with human Fc; also called MIAB182-001
B28: MIAB175 (antibody, V domains shown)
VH: B21 VH with D31S, F32Y
VL: B21 VL with I29V, S31R, Y32S, N34A
notes: tested with human Fc; also called MIAB175-001

One assay concerns the target T1, human MAdCAM (human, UniProt Q13477 19-317, limits assumed).
T1 construct: also called huMAdCAM; human MAdCAM-1
T1 sequence (looked up): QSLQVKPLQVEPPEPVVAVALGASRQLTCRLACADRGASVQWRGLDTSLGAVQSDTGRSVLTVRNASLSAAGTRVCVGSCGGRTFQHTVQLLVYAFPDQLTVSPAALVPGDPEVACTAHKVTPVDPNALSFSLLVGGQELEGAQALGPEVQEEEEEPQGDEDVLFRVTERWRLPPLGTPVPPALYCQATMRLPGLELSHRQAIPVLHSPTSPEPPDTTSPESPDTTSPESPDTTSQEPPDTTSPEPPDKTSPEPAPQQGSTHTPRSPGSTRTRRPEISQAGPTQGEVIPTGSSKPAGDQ
As to the kind of experiment: BLI (Octet), binder on AHC tips. A digest of the protocol: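 Kinetic rates and the dissociation constant come from a global one-to-one fit, performed in the Octet data analysis software, of binding measured on an Octet96 RED with anti-human IgG Fc biosensors. Test article at 10 μg/mL in assay buffer was captured on the tips for 240 s. MAdCAM-1, serially diluted over seven points from 200 nM down to 3.13 nM, then associated for 120 s before 120 s of dissociation in assay buffer.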
In turn, B1 came in with a Kd of 175 nM, a koff of 0.127 s⁻¹ and an association rate constant (kon) of 725000 M⁻¹ s⁻¹.

On to B2, for which the Kd was 150 nM, the koff turned out to be 0.105 s⁻¹ and the kon stood at 698000 M⁻¹ s⁻¹.

In the case of B3, the Kd amounted to 93.5 nM, the koff amounted to 0.00952 s⁻¹ and the kon was 115000 M⁻¹ s⁻¹.

Take B4: the binding result is listed as “no binding (tested: 200 nM (top of the dilution series))”.

As to B5, the affinity, expressed as Kd, was 413 nM; the koff was found to be 0.12 s⁻¹; the kon came out at 290000 M⁻¹ s⁻¹.

As for B6, the affinity, expressed as Kd, was 236 nM; the koff is 0.136 s⁻¹; the kon turned out to be 576000 M⁻¹ s⁻¹.

Turning to B7, the binding result is reported as “no binding (tested: 200 nM (top of the dilution series))”.

In turn, B8 yielded a Kd of 219 nM, a koff of 0.072 s⁻¹ and a kon of 329000 M⁻¹ s⁻¹.

With B9, the Kd was determined as 146 nM, the koff is 0.0967 s⁻¹ and the kon was 662000 M⁻¹ s⁻¹.

In the case of B10, the binding result was “no binding (tested: 300 nM (top of the dilution series))”.

In the case of B11, the Kd was 63.3 nM, the koff was determined as 0.0464 s⁻¹ and the kon stood at 733000 M⁻¹ s⁻¹.

For the molecule B12, the Kd came out at 159 nM, the koff amounted to 0.0725 s⁻¹ and the kon stood at 455000 M⁻¹ s⁻¹.

For the molecule B13, the Kd was 333 nM, the koff is 0.239 s⁻¹ and the kon is 717000 M⁻¹ s⁻¹.

As to B14, the binding result is listed as “no binding (tested: 200 nM (top of the dilution series))”.

In turn, B15 came in with a Kd of 132 nM, a koff of 0.0717 s⁻¹ and a kon of 542000 M⁻¹ s⁻¹.

B16 had a Kd of 37900 nM, a koff of 0.309 s⁻¹ and a kon of 8160 M⁻¹ s⁻¹.

B17 showed a Kd of 71.4 nM, a koff of 0.0469 s⁻¹ and a kon of 656000 M⁻¹ s⁻¹.

Molecule B18 showed a Kd of 41.8 nM, a koff of 0.0547 s⁻¹ and a kon of 1.31e+06 M⁻¹ s⁻¹.

Regarding B19, the Kd worked out at 142 nM, the koff came out at 0.0125 s⁻¹ and the kon worked out at 87900 M⁻¹ s⁻¹.

Take B20: the affinity, expressed as Kd, was 466 nM; the koff was found to be 0.195 s⁻¹; the kon is 419000 M⁻¹ s⁻¹.

Another assay has as its target T1, human MAdCAM. Nature of the assay: BLI (Octet), binder on anti-human Fc tips.
As to B21, the binding result is “no binding (tested: 150 nM)”.

Turning to B22, the Kd was 21.8 nM, the koff amounted to 0.00969 s⁻¹ and the kon came to 445000 M⁻¹ s⁻¹.

Turning to B23, the Kd was determined as 563 nM, the “fold reduction of affinity against PRNT1” value amounted to 40 fold, the koff stood at 0.0818 s⁻¹ and the kon was found to be 145000 M⁻¹ s⁻¹.

B24 came in with a Kd of 218 nM, an off-rate (koff) of 0.0851 s⁻¹ and a kon of 391000 M⁻¹ s⁻¹.

Molecule B25 came in with a Kd of 519 nM, an off-rate (koff) of 0.22 s⁻¹ and an on-rate (kon) of 372000 M⁻¹ s⁻¹.

For B26, binding was characterised by a dissociation constant (Kd) of 362 nM and the “fold reduction of affinity against PRNT1” value is 20 fold.

Turning to B27, the Kd was 119 nM, the “fold reduction of affinity against PRNT1” value came out at 10 fold, the koff stood at 0.0267 s⁻¹ and the kon was determined as 226000 M⁻¹ s⁻¹.

Molecule B28 had a Kd of 22.6 nM, a koff of 0.0106 s⁻¹ and a kon of 471000 M⁻¹ s⁻¹.
